Measurements reported in patent US20080255046A1 (7TM PHARMA A S, published 2008).
Where no end group is shown, it is not given here. [ ]: non-standard residue; d: D form. Met(O) = CS(=O)CC[C@H](N)C(=O)O

T1: rhesus monkey Y2 receptor (rhesus monkey, UniProt Q9GK74 1-381)
T1 sequence (looked up): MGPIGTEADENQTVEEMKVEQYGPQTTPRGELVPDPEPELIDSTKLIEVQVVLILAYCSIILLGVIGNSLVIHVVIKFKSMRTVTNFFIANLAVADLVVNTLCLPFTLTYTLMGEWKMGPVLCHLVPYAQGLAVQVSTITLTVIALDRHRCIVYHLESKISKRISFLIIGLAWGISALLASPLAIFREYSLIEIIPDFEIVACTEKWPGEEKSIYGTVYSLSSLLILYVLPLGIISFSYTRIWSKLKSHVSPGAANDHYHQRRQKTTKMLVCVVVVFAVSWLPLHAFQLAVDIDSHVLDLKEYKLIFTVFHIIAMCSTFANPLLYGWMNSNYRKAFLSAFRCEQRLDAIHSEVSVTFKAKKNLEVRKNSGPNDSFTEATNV

B1: [Lys4,Leu17,Met-sulfoxide30,Gln34]hPP (peptide)
peptide: APLKPVYPGDNATPEQLAQYAADLRRYIN[Met(O)]LTRQRY-NH2
modifications: N-terminus assumed
SMILES: CC[C@H](C)[C@H](NC(=O)[C@H](Cc1ccc(O)cc1)NC(=O)[C@H](CCCNC(=N)N)NC(=O)[C@H](CCCNC(=N)N)NC(=O)[C@H](CC(C)C)NC(=O)[C@H](CC(=O)O)NC(=O)[C@H](C)NC(=O)[C@H](C)NC(=O)[C@H](Cc1ccc(O)cc1)NC(=O)[C@H](CCC(N)=O)NC(=O)[C@H](C)NC(=O)[C@H](CC(C)C)NC(=O)[C@H](CCC(N)=O)NC(=O)[C@H](CCC(=O)O)NC(=O)[C@@H]1CCCN1C(=O)[C@@H](NC(=O)[C@H](C)NC(=O)[C@H](CC(N)=O)NC(=O)[C@H](CC(=O)O)NC(=O)CNC(=O)[C@@H]1CCCN1C(=O)[C@H](Cc1ccc(O)cc1)NC(=O)[C@@H](NC(=O)[C@@H]1CCCN1C(=O)[C@H](CCCCN)NC(=O)[C@H](CC(C)C)NC(=O)[C@@H]1CCCN1C(=O)[C@H](C)N)C(C)C)[C@@H](C)O)C(=O)N[C@@H](CC(N)=O)C(=O)N[C@@H](CCS(C)=O)C(=O)N[C@@H](CC(C)C)C(=O)N[C@H](C(=O)N[C@@H](CCCNC(=N)N)C(=O)N[C@@H](CCC(N)=O)C(=O)N[C@@H](CCCNC(=N)N)C(=O)N[C@@H](Cc1ccc(O)cc1)C(N)=O)[C@@H](C)O
notes: Human PP with Lys at 4, Leu at 17, oxidised Met at 30 and Gln at 34; also called [Lys4, Leu17, Met(O)30, Gln34]-PP; [Lys4,Leu17,oxidised Met30,Gln34]hPP
B2: [Lys4,Leu17,Ser30,Gln34]hPP (peptide)
peptide: APLKPVYPGDNATPEQLAQYAADLRRYINSLTRQRY-NH2
notes: also called [Lys4, Leu17, Ser30, Gln34]-PP; peptide (i)
B3: [Lys4,Leu17,Thr30,Gln34]hPP (peptide)
peptide: APLKPVYPGDNATPEQLAQYAADLRRYINTLTRQRY-NH2
notes: Human PP with Lys at 4, Leu at 17, Thr at 30 and Gln at 34; also called [Lys4, Leu17, Thr30, Gln34]-PP; peptide (ii)
B4: NPY (Neuropeptide Y), human sequence (peptide)
peptide: not shown
modifications: C-terminally amidated
B5: PYY (Peptide YY), human sequence (peptide)
peptide: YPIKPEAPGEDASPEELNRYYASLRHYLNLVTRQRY
modifications: C-terminally amidated
notes: also called PYY1-36; human PYY

What follows are binders tested against T2, rhesus monkey Y4 receptor (rhesus monkey) (assay: competition binding on CHO cells expressing rhesus monkey Y4 (125I-PP), compared with Y2).
T2 construct: whole, on cells; also called rhY4
Procedure: (§1) The stable transfected CHO cells are transferred to 48-well culture plates one day prior assay at a density of 2,500 cells per well aiming at 5-8% binding of the radioactive ligand. […] Binding assays are performed in 0.5 ml of a 50 mM Hepes buffer, pH 7.4, supplemented with 1 mM CaCl2, 5 mM MgCl2, and 0.1% (w/v) bovine serum albumin and 100 μg/ml bacitracin. Non-specific binding is determined as the binding in the presence of 1 μM of unlabeled human PYY. Cells are washed twice in 0.5 ml of ice-cold buffer and 0.5-1 ml of lysis buffer (8 M Urea, 2% NP40 in 3 M acetic acid) is added and the bound radioactivity is counted in a gamma counter. Determinations are made in triplicates. […] IC50 values were calculated using a standard pharmacological data handling software, Prism 3.0 (graphpad Sofware, San Diego, USA). Ki-values are calculated according the Cheng-Prusoff equation (Cheng Y, Prusoff W H., Biochem Pharmacol. 1973): Ki=[IC50/(1+[L]/Kd)], where Ki is the equilibrium inhibitory constant for the cold ligand, Kd is the equilibrium constant for the radiolabeled (hot) ligand and L is the concentration of the radiolabeled ligand used.

Row | Binder | fold selectivity (affinity at Y2 against Y4)
1 | B1 | ≥ 20 fold
2 | B2 | ≥ 20 fold
3 | B3 | ≥ 20 fold

The binders below were run against T2, rhesus monkey Y4 receptor (assay: cell-based or functional assay).

Row | Binder | fold selectivity in the potency assay (Y2 against Y4)
4 | B1 | ≥ 20 fold
5 | B2 | ≥ 20 fold
6 | B3 | ≥ 20 fold

Each binder was assayed against rhesus monkey Y1 receptor (rhesus monkey) (assay: cell-based or functional assay).

Row | Binder | fold selectivity in the potency assay (Y2 against Y1)
7 | B1 | ≥ 100 fold
8 | B2 | ≥ 100 fold
9 | B3 | ≥ 100 fold

The binders below were run against T3, rhesus monkey Y1 receptor (rhesus monkey) (assay: competition binding on CHO cells expressing rhesus monkey Y1 (125I-PYY), compared with Y2).
T3 construct: whole, on cells; also called rhY1
Procedure: as §1
Protocol as for the Y2 affinity assay, except that CHO cells stably expressing rhesus monkey Y1 are used and cells are transferred to culture plates at a density of 23,000 cells per well.

Row | Binder | fold selectivity (affinity at Y2 against Y1)
10 | B1 | ≥ 100 fold
11 | B2 | ≥ 100 fold
12 | B3 | ≥ 100 fold

These binders were tested against T1, rhesus monkey Y2 receptor (assay: cell-based or functional assay).

Row | Binder | IP3 EC50 values at Y2 | IP3 EC50 values at Y2 (nM)
13 | B4 | 0.6 nM | –
14 | B1 | 0.5 nM | –
15 | B2 | 0.67 nM | –
16 | APLEPVYPGDNATPEQMAQYAADLRRYINMLTRPRY-NH2 [PP (Pancreatic Polypeptide), human sequence] | – | > 1000 nM
17 | B3 | 0.71 nM | –
18 | B5 | 0.18 nM | –

Each binder was assayed against T1, rhesus monkey Y2 receptor (assay: competition binding with 125I-PYY on CHO cells stably expressing rhesus monkey Y2).
Procedure: as §1

Row | Binder | Ki
19 | B4 | 0.11 nM
20 | B1 | 0.06 nM
21 | B2 | 0.51 nM
22 | B3 | 0.47 nM
23 | B5 | 0.09 nM
